From article PMC5289646, “Proline Metabolism is Essential for Trypanosoma brucei brucei Survival in the Tsetse Vector” (PLoS Pathogens, 2017) come the findings set out here.

Substrate in data set [1]: NC(=O)c1ccc[n+]([C@@H]2O[C@H](COP(=O)(O)OP(=O)(O)OC[C@H]3O[C@@H](n4cnc5c(N)ncnc54)[C@H](O)[C@@H]3O)[C@@H](O)[C@H]2O)c1
The data set is described as follows: cells, lysate or membranes. Particulars: 600 μM P5C/γGS (saturating), 0.01-2.5 mM NAD+, potassium phosphate pH 7.2, 28°C, crude homogenate, varied: cofactor.

Substrate in data set [2]: O=C(O)C1CCC=N1
Description: cells, lysate or membranes. Particulars: 1 mM NAD+ (saturating), 20-600 μM P5C/γGS, potassium phosphate pH 7.2, 28°C, racemic substrate in equilibrium with open form, crude homogenate.

B1: TbP5CDH (Trypanosoma brucei brucei TREU927) (protein)
chain: PPAVNERMDSFQPGSDSARGTLEACKRLRCGATDCPIVIGGKEYRTDNAINRMIPSSHQQQVAKGYNATPELAQKAIDTALGAAKEWSQMPFKDRAAIFLHAAHLISTKYRHELRAATMLGQSKNPFQAEIDVIAESCDFLRFSVKYAEELYNQQPISPASGPVWNALDYRPLEGFVSVIAPFNFSAIAANLVACPALMGNVILWKPSPNAVLSNYLLYKVFEEAGLPAGVVNFMPCEPKVMTEVVNSHPELAGVAFTGSTNVFLSINKQIYSRLEEYRNIPRISGETGGKDFHLIHPTADMKMTAALTVRGAFEYQGQKCSATSRIYVPQSRWEELKGYLLELHGKLKMGQPDDFQSFMCAVIDETAFDRNKKYIDIAKADSSAYTIIAGGGCDKSEGWFIQPTIIVAKDPNAQLLREEIFGPILTVHVYDDSKPDFWSEACNLVNNATKYALTGSIFAQDRKAIRDATEKHLRYAAGNYYINDKCTGAVVGQQPFGGARASGSNDKPGSALFLTRWVSARTIKENFDHSAQVSYPHQLPDYVTL
For B1, the Km in data set [1] is 380 ± 40 µM; in data set [2], 92.7 ± 14 µM.

For orientation: Km means the substrate concentration at which the rate is half of its maximum.
